Assay results published in patent US7205150B2, “Transgenic plants over-expressing plant ADP-glucose pyrophosphatase” (Universidad Publica de Navarra, priority 2000, dated 2007).
One block for each molecule: values may come before it.

Columns and labels:
[1] = Stability of AGPPase to pH and temperature; format: physicochemical; details: 65° C. for 30 minutes
[2] = tested on: AGPPase (soluble and particulate isoforms); experiment: AGPPase enzymatic assay (two-step spectrophotometric determination of G1P produced from ADPG); format: biochemical, barley (Hordeum vulgare), tomato (Lycopersicon sculentum)

B1: Soluble AGPPase: soluble isoform of AGPPase purified from barley leaves, a germin-like glycoprotein (protein)
chain: MANAMLLPVLVSFLVLPFSAMALTQDFCVADLSCSDTPAGYPCKTGVGAGDFYYHGLAAAGNTSNLIKAAVTPAFVGQFPGVNGLGISAARLDIAVGGVVPMHTHPAASELLFVTEGTILAGFISSSSNTVYTKTLYKGDIMVFPQGLLHYQYNGGSSSAVALVAFSGPNPGLQITDYALFANNLPSAVVEKVTFLDDAQVKKLKSVLGGSG
modifications: Hordeum vulgare cv. Scarlett; Soluble AGPPase deduced from cDNA
notes: soluble isoform of AGPPase purified from barley leaves, a germin-like glycoprotein
- Heat resistance of soluble AGPPase [1]: resistant

- Resistance of AGPPase to ionic detergents and proteases [2]: resistant
B2: K proteinase: protease (Boehringer) (protein, UniProt P06873 106-384, looked up)
Proteinase K: AAQTNAPWGLARISSTSPGTSTYYYDESAGQGSCVYVIDTGIEASHPEFEGRAQMVKTYYYSSRDGNGHGTHCAGTVGSRTYGVAKKTQLFGVKVLDDNGSGQYSTIIAGMDFVASDKNNRNCPKGVVASLSLGGGYSSSVNSAAARLQSSGVMVAVAAGNNNADARNYSPASEPSVCTVGASDRYDRRSSFSNYGSVLDIFGPGTSILSTWIGGSTRSISGTSMATPHVAGLAAYLMTLGKTTAASACRYIADTANKGDLSNIPFGTVNLLAYNNYQA
